Experiment [1] addresses T1, rat GALR2 (rat).
T1 chain: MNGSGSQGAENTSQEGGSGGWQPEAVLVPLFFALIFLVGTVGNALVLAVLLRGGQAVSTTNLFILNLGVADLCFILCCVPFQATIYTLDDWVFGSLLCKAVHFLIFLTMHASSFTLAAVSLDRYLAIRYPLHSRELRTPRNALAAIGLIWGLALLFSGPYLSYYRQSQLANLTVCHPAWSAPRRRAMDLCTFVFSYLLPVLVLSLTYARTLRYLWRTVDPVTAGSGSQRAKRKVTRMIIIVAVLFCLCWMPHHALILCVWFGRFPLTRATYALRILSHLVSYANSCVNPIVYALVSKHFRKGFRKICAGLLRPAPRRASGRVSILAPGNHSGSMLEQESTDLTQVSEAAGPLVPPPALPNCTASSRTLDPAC
Nature of the experiment: competition. As to conditions: modification not given.

Experiment [2] concerns the target T1, rat GALR2 (rat). Description: radioligand. The following applies: modification not given.

Broadly, the Ki is a dissociation constant, usually derived from enzyme kinetics or from competition with a known ligand. The low end stands for tighter binding, the high end for weaker binding. GWTLNSAGYLLGPHAIDNHRSFHDKYGLA [[D-Trp2]porcine galanin(1-29), P07480] displayed a Ki with rat GALR2 (rat) [1] of 6.46 nM.

In turn, GWTLASAGYLLGPHAI [[Ala5]galanin(1-16), P07480] had a Ki in the experiment with rat GALR2 (rat) [1] of more than 620 nM.

For GFTLNSAGYLLGPHAIDNHRSFHDKYGLA [[Phe2]porcine galanin(1-29), P07480], in the experiment with rat GALR2 (rat) [1], the Ki was more than 1000 nM.

With GWTLNSAGALLGPHAI [[Ala9]galanin(1-16), P07480], the Ki with rat GALR2 (rat) [1] is more than 1000 nM.

Consider GATLNSAGYLLGPHAI [porcine Ala2-galanin 1-16, P07480], for which, in the experiment with rat GALR2 (rat) [1], the Ki is more than 1000 nM.

Regarding GWTLNSAGY [porcine galanin 1-9, P07480], the Ki with rat GALR2 (rat) [1] is more than 1000 nM.

One may read the Kd as the constant that tells how readily two partners part at equilibrium. A lower Kd goes with higher affinity. In the case of GWTLNSAGYLLGPHAIDNHRSFHDKYGLA [[125I]porcine galanin, P07480], the Kd with rat GALR2 (rat) [2] is 0.2 nM.

For the molecule DNHRSFHDKYGLA [porcine galanin 17-29, P07480], the Ki with rat GALR2 (rat) [1] is more than 1000 nM.

In the experiment with rat GALR2 (rat) [1], GFTLNSAGYLLGPHAI [Phe2-galanin 1-16, P07480] had a Ki of more than 1000 nM.

Molecule GWTLNSAGYLLGPHAIDNHRSFHDKYGLA [porcine galanin(1-29), P07480] showed a Ki with rat GALR2 (rat) [1] of 0.447 nM.

Values taken from patent publication US7060449.
